How the values were obtained:
[1] = target: FcRn/β2m heterodimers (SPR analyte) (UniProt P55899 24-365; P61769 21-119); assay: SPR; pH 7.4; IgG captured by gp120
6×His-tagged FcRn/β2m = 6×His-tagged FcRn/β2m (UniProt P55899 24-365; P61769 21-119); assay: BLI; pH 7.4; FcRn immobilised
[2] = target: 6×His-tag cleaved FcRn/β2m (UniProt P55899 24-365; P61769 21-119); assay: BLI; pH 7.4; IgG immobilised
Sequence of 6×His-tag cleaved FcRn/β2m (P55899 24-365, chain 1 of 2): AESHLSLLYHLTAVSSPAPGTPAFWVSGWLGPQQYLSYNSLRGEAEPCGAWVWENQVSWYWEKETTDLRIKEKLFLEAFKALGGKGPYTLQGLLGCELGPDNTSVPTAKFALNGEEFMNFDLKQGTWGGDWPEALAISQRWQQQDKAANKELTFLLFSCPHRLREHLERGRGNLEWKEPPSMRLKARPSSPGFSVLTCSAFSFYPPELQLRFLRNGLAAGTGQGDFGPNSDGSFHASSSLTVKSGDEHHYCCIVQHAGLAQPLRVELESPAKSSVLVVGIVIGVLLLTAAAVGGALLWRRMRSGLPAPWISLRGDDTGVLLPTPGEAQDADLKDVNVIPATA
Sequence of 6×His-tag cleaved FcRn/β2m (P61769 21-119, chain 2 of 2): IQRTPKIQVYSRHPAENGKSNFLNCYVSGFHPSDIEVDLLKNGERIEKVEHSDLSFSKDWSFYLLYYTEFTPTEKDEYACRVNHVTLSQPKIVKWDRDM

Sequence of FcRn/β2m heterodimers (SPR analyte) (P55899 24-365, chain 1 of 2): as the sequence (P55899 24-365, chain 1 of 2) above
Sequence of FcRn/β2m heterodimers (SPR analyte) (P61769 21-119, chain 2 of 2): as the sequence (P61769 21-119, chain 2 of 2) above
Sequence of 6×His-tagged FcRn/β2m (P55899 24-365, chain 1 of 2): as the sequence (P55899 24-365, chain 1 of 2) above
Sequence of 6×His-tagged FcRn/β2m (P61769 21-119, chain 2 of 2): as the sequence (P61769 21-119, chain 2 of 2) above

Row | Binder | Kd [1] | Kd (6×His-tagged FcRn/β2m) | Kd [2]
1 | VRC07-523LS.v1 (antibody) chain 1: QVRLSQSGGQMKKPGDSMRISCRASGYEFINCPINWIRLAPGKRPEWMGWMKPRFGAVSYARQLQGRVTMTRQLSQDPDDPDWGTAFLELRSLTSDDTAVYFCTRGKYCTARDYYNWDFEHWGQGTPVTVSS chain 2: LTQSPGTLSLSPGETAIISCRTSQYGSLAWYQQRPGQAPRLVIYSGSTRAAGIPDRFSGSRWGPDYNLTISNLESGDFGVYYCQQYEFFGQGTKVQVD | 10000 nM | 930 nM | 180 nM
2 | VRC07-523LS.v23 (antibody) chain 1: QVRLSQSGGQMKKPGDSMRISCRASGYEFINCPINWIRLAPGKRPEWMGWMKPRFGAVSYARQLQGRVTMTRQLSQDPDDPDWGTAFLELRSLTSDDTAVYFCTRGKYCTARDYYNWDFEHWGQGTPVTVSS chain 2: LTQSPGTLSLSPGETAIISCSTSQYGSLAWYQQRPGQAPRLVIYSGSTRAAGIPDRFSGSRWGPDYNLTISNLESGDFGVYYCQQYEFFGQGTKVQVD | 3800 nM | 1600 nM | 170 nM
3 | VRC07-523LS.v37 (antibody) chain 1: QVRLSQSGGQMKKPGDSMRISCQASGYEFINCPINWIRLAPGKRPEWMGWMKPRFGAVSYARQLQGRVTMTRQLSQDPDDPDWGTAFLELRSLTSDDTAVYFCTRGQYCTARDYYNWDFEHWGQGTPVTVSS chain 2: LTQSPGTLSLSPGETAIISCETSQYGSLAWYQQRPGQAPRLVIYSGSTRAAGIPDRFSGSRWGPDYNLTISNLESGDFGVYYCQQYEFFGQGTKVQVD | 9600 nM | 5400 nM | 180 nM
4 | VRC07-523LS.v34 (antibody) chain 1: QVRLSQSGGQMKKPGDSMRISCSASGYEFINCPINWIRLAPGKRPEWMGWMKPRFGAVSYARQLQGRVTMTRQLSQDPDDPDWGTAFLELRSLTSDDTAVYFCTRGSYCTARDYYNWDFEHWGQGTPVTVSS chain 2: LTQSPGTLSLSPGETAIISCETSQYGSLAWYQQRPGQAPRLVIYSGSTRAAGIPDRFSGSRWGPDYNLTISNLESGDFGVYYCQQYEFFGQGTKVQVD | 6300 nM | 6000 nM | 170 nM
